These results are taken from patent US20250041387A1 (BEIJING STOMATOLOGICAL HOSPITAL CAPITAL MEDICAL UNIVERSITY, published 2025).

This test has as its target WD repeat domain 5 (WDR5), human, endogenous in human mesenchymal stem cells (human, UniProt P61964 2-334). Description: Co-IP with HA antibody, stem cells from apical papilla overexpressing HA-KDM6B.

Description: On the next day, the cells were added with Protein A/G beads and rotated on a rotary shaker at 4° C. for 2 hours. […] All cells were incubated overnight to form a complex of protein-antibody-agarose bead. […] (2) Grouping: Input group (loading amount of 25 μg); antibody group (loading amount of 800 μg, 2 μg of antibody); IgG group (loading amount of 800 μg, 2 μg of antibody). Samples were diluted with lysate. […] (3) Preparation of protein A/G beads

B1: HA-KDM6B (full-length KDM6B with HA tag, overexpressed in stem cells from apical papilla) (enzyme)
chain: MHRAVDPPGARAAREAFALGGLSCAGAWSSCPPHPPPRSAWLPGGRCSASIGQPPLPAPLPPSHGSSSGHPSKPYYAPGAPTPRPLHGKLESLHGCVQALLREPAQPGLWEQLGQLYESEHDSEEATRCYHSALRYGGSFAELGPRIGRLQQAQLWNFHTGSCQHRAKVLPPLEQVWNLLHLEHKRNYGAKRGGPPVKRAAEPPVVQPVPPAALSGPSGEEGLSPGGKRRRGCNSEQTGLPPGLPLPPPPLPPPPPPPPPPPPPLPGLATSPPFQLTKPGLWSTLHGDAWGPERKGSAPPERQEQRHSLPHPYPYPAPAYTAHPPGHRLVPAAPPGPGPRPPGAESHGCLPATRPPGSDLRESRVQRSRMDSSVSPAATTACVPYAPSRPPGLPGTTTSSSSSSSSNTGLRGVEPNPGIPGADHYQTPALEVSHHGRLGPSAHSSRKPFLGAPAATPHLSLPPGPSSPPPPPCPRLLRPPPPPAWLKGPACRAAREDGEILEELFFGTEGPPRPAPPPLPHREGFLGPPASRFSVGTQDSHTPPTPPTPTTSSSNSNSGSHSSSPAGPVSFPPPPYLARSIDPLPRPPSPAQNPQDPPLVPLTLALPPAPPSSCHQNTSGSFRRPESPRPRVSFPKTPEVGPGPPPGPLSKAPQPVPPGVGELPARGPRLFDFPPTPLEDQFEEPAEFKILPDGLANIMKMLDESIRKEEEQQQHEAGVAPQPPLKEPFASLQSPFPTDTAPTTTAPAVAVTTTTTTTTTTTATQEEEKKPPPALPPPPPLAKFPPPSQPQPPPPPPPSPASLLKSLASVLEGQKYCYRGTGAAVSTRPGPLPTTQYSPGPPSGATALPPTSAAPSAQGSPQPSASSSSQFSTSGGPWARERRAGEEPVPGPMTPTQPPPPLSLPPARSESEVLEEISRACETLVERVGRSATDPADPVDTAEPADSGTERLLPPAQAKEEAGGVAAVSGSCKRRQKEHQKEHRRHRRACKDSVGRRPREGRAKAKAKVPKEKSRRVLGNLDLQSEEIQGREKSRPDLGGASKAKPPTAPAPPSAPAPSAQPTPPSASVPGKKAREEAPGPPGVSRADMLKLRSLSEGPPKELKIRLIKVESGDKETFIASEVEERRLRMADLTISHCAADVVRASRNAKVKGKFRESYLSPAQSVKPKINTEEKLPREKLNPPTPSIYLESKRDAFSPVLLQFCTDPRNPITVIRGLAGSLRLNLGLFSTKTLVEASGEHTVEVRTQVQQPSDENWDLTGTRQIWPCESSRSHTTIAKYAQYQASSFQESLQEEKESEDEESEEPDSTTGTPPSSAPDPKNHHIIKFGTNIDLSDAKRWKPQLQELLKLPAFMRVTSTGNMLSHVGHTILGMNTVQLYMKVPGSRTPGHQENNNFCSVNINIGPGDCEWFAVHEHYWETISAFCDRHGVDYLTGSWWPILDDLYASNIPVYRFVQRPGDLVWINAGTVHWVQATGWCNNIAWNVGPLTAYQYQLALERYEWNEVKNVKSIVPMIHVSWNVARTVKISDPDLFKMIKFCLLQSMKHCQVQRESLVRAGKKIAYQGRVKDEPAYYCNECDVEVFNILFVTSENGSRNTYLVHCEGCARRRSAGLQGVVVLEQYRTEELAQAYDAFTLAPASTSR
notes: whole, on cells; Full-length protein expressed inside human SCAPs and pulled down from lysate with HA antibody; also called PQCXIN-HA-KDM6B; SCAPs-HA-KDM6B; not shown: HA tag
For B1, the binding result is given as “binds”.
